In patent publication US20230265217A1:

Key:
Settings in all cases: remark: other sources report otherwise
[1] = molecular target: T1, SARS-CoV-2 S protein trimer (Kappa B.1.617.1 India variant) [SPN-C52Hr] (SARS-CoV-2), P0DTC2; experiment: binding kinetics, Carterra SPR
[2] = molecular target: T2, SARS-CoV-2 S protein trimer (Alpha B.1.1.7 UK variant) [SPN-C52H6] (SARS-CoV-2), P0DTC2; experiment: binding kinetics, Carterra SPR
[3] = molecular target: T3, SARS-CoV-2 S protein trimer (Delta B.1.617.2 India variant) [SPN-C52He] (SARS-CoV-2), P0DTC2; experiment: binding kinetics, Carterra SPR
[4] = molecular target: SARS-CoV-2 S protein trimer [SPN-C52H9] (SARS-CoV-2), P0DTC2; experiment: binding kinetics, Carterra SPR
[5] = molecular target: T4, SARS-CoV-2 S protein trimer (Beta B.1.351 SA variant) [SPN-C52Hk] (SARS-CoV-2), P0DTC2; experiment: binding kinetics, Carterra SPR
[6] = molecular target: S1 RBD L452R E484Q (Acro) (SARS-CoV-2), P0DTC2; experiment: Carterra SPR
[7] = molecular target: T1, SARS-CoV-2 S protein trimer (Kappa …); experiment: Carterra SPR
[8] = molecular target: SARS-CoV-2 S protein trimer (P.1 Gamma Brazil variant) [SPN-C52Hg] (SARS-CoV-2), P0DTC2; experiment: Carterra SPR
[9] = molecular target: T2, SARS-CoV-2 S protein trimer (Alpha …); experiment: Carterra SPR
[10] = molecular target: T3, SARS-CoV-2 S protein trimer (Delta …); experiment: Carterra SPR
[11] = molecular target: SARS-CoV-2 S protein trimer [SPN-C52H7] (SARS-CoV-2), P0DTC2; experiment: Carterra SPR
[12] = molecular target: T4, SARS-CoV-2 S protein trimer (Beta …); experiment: Carterra SPR

B1: 7-26 (VHH)
VHH: EVQLVESGGGLVQPGGSLRLSCAASGSTFSINAMGWFRQAPGKEREFVAGITSSGGYTNYADSVKGRFTISADNSKNTAYLQMNSLKPEDTAVYYCAADGVPEYSDYASGPVWGQGTLVTVSS
**Q.** Which Kd [1] does the source give for B1 here?
**A.** < 0.00852 nM

**Q.** And the koff [1]?
**A.** < 1e-05 s⁻¹

**Q.** What about the kon [1] of the same binder?
**A.** 1.17e+06 M⁻¹ s⁻¹

**Q.** And the Kd [2]?
**A.** < 0.00965 nM

**Q.** And the koff [2]?
**A.** < 1e-05 s⁻¹

**Q.** What about the kon [2] of the same binder?
**A.** 1.04e+06 M⁻¹ s⁻¹

**Q.** What about the Kd [3] of the same binder?
**A.** < 0.0104 nM

**Q.** What about the koff [3] of the same binder?
**A.** < 1e-05 s⁻¹

**Q.** What about the kon [3] of the same binder?
**A.** 958000 M⁻¹ s⁻¹

**Q.** And the Kd [4]?
**A.** < 0.011 nM

**Q.** What about the koff [4] of the same binder?
**A.** < 1e-05 s⁻¹

**Q.** And the kon [4]?
**A.** 911000 M⁻¹ s⁻¹

**Q.** And the Kd [5]?
**A.** < 0.00808 nM

**Q.** And the koff [5]?
**A.** < 1e-05 s⁻¹

**Q.** What about the kon [5] of the same binder?
**A.** 1.24e+06 M⁻¹ s⁻¹

**Q.** What about the Kd [6] of the same binder?
**A.** 18 nM

B2: 3-31 (VHH)
VHH: EVQLVESGGGLVQPGGSLRLSCAASGSTFSINAMGWFRQAPGKEREFVAGITSSGGYTNYADSVKGRFTISADNSKNTAYLQMNSLKPEDTAVYYCAADGVPEYSDYASGPVWGQGTLVTVSS
**Q.** How did the Kd [1] turn out when B2 was run?
**A.** < 0.01 nM

**Q.** What about the koff [1] of the same binder?
**A.** < 1e-05 s⁻¹

**Q.** What about the kon [1] of the same binder?
**A.** 1e+06 M⁻¹ s⁻¹

**Q.** And the Kd [2]?
**A.** < 0.0108 nM

**Q.** What about the koff [2] of the same binder?
**A.** < 1e-05 s⁻¹

**Q.** What about the kon [2] of the same binder?
**A.** 925000 M⁻¹ s⁻¹

**Q.** What about the Kd [3] of the same binder?
**A.** < 0.0107 nM

**Q.** What about the koff [3] of the same binder?
**A.** < 1e-05 s⁻¹

**Q.** And the kon [3]?
**A.** 938000 M⁻¹ s⁻¹

**Q.** What about the Kd [4] of the same binder?
**A.** < 0.0136 nM

**Q.** What about the koff [4] of the same binder?
**A.** < 1e-05 s⁻¹

**Q.** What about the kon [4] of the same binder?
**A.** 734000 M⁻¹ s⁻¹

**Q.** And the Kd [5]?
**A.** < 0.0098 nM

**Q.** And the koff [5]?
**A.** < 1e-05 s⁻¹

**Q.** And the kon [5]?
**A.** 1.02e+06 M⁻¹ s⁻¹

**Q.** What about the Kd [7] of the same binder?
**A.** 0.0129 nM

**Q.** And the koff [7]?
**A.** 1e-05 s⁻¹

**Q.** What about the kon [7] of the same binder?
**A.** 777000 M⁻¹ s⁻¹

**Q.** And the Kd [8]?
**A.** < 0.012 nM

**Q.** And the koff [8]?
**A.** < 1e-05 s⁻¹

**Q.** And the kon [8]?
**A.** 834000 M⁻¹ s⁻¹

**Q.** What about the Kd [9] of the same binder?
**A.** 0.0143 nM

**Q.** And the koff [9]?
**A.** 1e-05 s⁻¹

**Q.** And the kon [9]?
**A.** 699000 M⁻¹ s⁻¹

**Q.** What about the Kd [10] of the same binder?
**A.** 0.0134 nM

**Q.** What about the koff [10] of the same binder?
**A.** 1e-05 s⁻¹

**Q.** And the kon [10]?
**A.** 744000 M⁻¹ s⁻¹

**Q.** What about the Kd [11] of the same binder?
**A.** < 0.0167 nM

**Q.** What about the koff [11] of the same binder?
**A.** < 1e-05 s⁻¹

**Q.** And the kon [11]?
**A.** 600000 M⁻¹ s⁻¹

**Q.** What about the Kd [12] of the same binder?
**A.** 0.0117 nM

**Q.** And the koff [12]?
**A.** 1e-05 s⁻¹

**Q.** And the kon [12]?
**A.** 851000 M⁻¹ s⁻¹

**Q.** And the Kd [6]?
**A.** 16.2 nM
